Test results as given in US20260139048A1 (NANJING LEGEND BIOTECH, published 2026).
Changes are numbered by the printed parent chain.

T1: TIGIT on TIGIT-over expressing NFAT-Luc/Jurkat effector cells (GenScript reporter cell line) (UniProt Q495A1 22-244, limits assumed)
T1 sequence (looked up): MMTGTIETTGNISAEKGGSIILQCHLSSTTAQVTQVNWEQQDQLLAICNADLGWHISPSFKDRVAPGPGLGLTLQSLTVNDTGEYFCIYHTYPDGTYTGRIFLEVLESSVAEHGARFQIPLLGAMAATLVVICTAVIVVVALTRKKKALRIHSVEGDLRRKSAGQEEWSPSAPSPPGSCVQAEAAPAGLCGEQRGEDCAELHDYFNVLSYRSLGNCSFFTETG

T2: human TIGIT expressed on CHO-K1 cells (human, UniProt Q495A1 22-244)
T2 construct: whole, on cells; also called human TIGIT-CHO-K1 cells; human TIGIT over-expressing cell line
T2 sequence (looked up): T1 sequence (looked up)

T3: His-tagged human TIGIT (human, UniProt Q495A1 22-141)
T3 construct: SPR analyte; also called human TIGIT protein; not shown: His tag
T3 sequence: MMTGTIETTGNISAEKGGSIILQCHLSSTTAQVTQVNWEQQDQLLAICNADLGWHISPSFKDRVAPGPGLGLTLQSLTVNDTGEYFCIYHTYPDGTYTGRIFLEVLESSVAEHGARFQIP

B1: huTIGIT-19-1 (antibody, human IgG1, kappa, V domains shown)
VH: QVQLVQSGAEVKKPGASVKVSCKASGYTFTRYSMYWVRQAPGQGLEWIAFIDAYSGGSTYNQRFRGKATLTVDTSISTAYMELSRLRSDDTAVYYCARGGDYGWYLGVWGQGTLVTVSS
VL: DIQMTQSPSSLSASVGDRVTITCRPSENIYTYLSWYQQKPGKAPKLLIYNAKSLPSGVPSRFSGSGSGTDFTLTISSLQPEDFATYYCQHHYGNPLTFGQGTKVEIKR
notes: Humanized IgG; also called 19VH4.M9 + 19VL1.M4
B2: huTIGIT-19-2 (antibody, human IgG1, kappa, V domains shown)
VH: B1 VH
VL: B1 VL with P25A, E27Q, N28S, T31S
notes: Humanized IgG; also called 19VH4.M9 + 19VL1.M7
B3: huTIGIT-19-3 (antibody, human IgG1, kappa, V domains shown)
VH: B1 VH with N61A, R63K, R65Q
VL: B1 VL
notes: Humanized IgG; also called 19VH4.M10 + 19VL1.M4
B4: huTIGIT-19-4 (antibody, human IgG1, kappa, V domains shown)
VH: B1 VH with N61A, R63K, R65Q
VL: B1 VL with P25A, E27Q, N28S, T31S
notes: Humanized IgG; also called 19VH4.M10 + 19VL1.M7
B5: humanized TIGIT-6 antibody 6VH6 + 6VL1 (antibody, V domains shown)
VH: QVQLVQSGAEVKKPGASVKVSCKASGYTITENTMHWVRQAPGQRLEWIGGINPNNGGTSYNQQFKGRATLTVDTSASTAYMELSSLRSEDTAVYYCTRSSYYRYDLDYWGQGTTVTVSS
VL: DIQMTQSPSSLSASVGDRVTITCKASQDVKTALAWYQQKPGKAPKLLIYSASYRYTGVPSRFSGSGSGTDFTFTISSLQPEDIATYYCHQHYTTPWTFGGGTKLEIK
notes: Full-length IgG, tested as HEK293 supernatant
B6: humanized TIGIT-6 antibody 6VH5 + 6VL1 (antibody, V domains shown)
VH: B5 VH with V72R
VL: B5 VL
notes: as for B5
B7: humanized TIGIT-6 antibody 6VH6 + 6VL1.M1 (antibody, V domains shown)
VH: B5 VH
VL: B5 VL with K24Q, V29I
notes: as for B5
B8: humanized TIGIT-6 antibody 6VH6.M1 + 6VL1 (antibody, V domains shown)
VH: B5 VH with I29F, T33A
VL: B5 VL
notes: as for B5
B9: humanized TIGIT-6 antibody 6VH6.M3 + 6VL1 (antibody, V domains shown)
VH: B5 VH with N61S, Q63K, K65Q
VL: B5 VL
notes: as for B5
B10: humanized TIGIT-6 antibody 6VH6.M4 + 6VL1 (antibody, V domains shown)
VH: B5 VH with N55Q, N61S, Q63K, K65Q
VL: B5 VL
notes: as for B5
B11: humanized TIGIT-6 antibody 6VH6.M3 + 6VL1.M1 (antibody, V domains shown)
VH: B5 VH with N61S, Q63K, K65Q
VL: B5 VL with K24Q, V29I
notes: as for B5
B12: humanized TIGIT-19 antibody 19VH4 + 19VL1.M4 (antibody, V domains shown)
VH: B1 VH with T28A, T30S, A53P, S55N
VL: DIQMTQSPSSLSASVGDRVTITCRPSENIYTYLSWYQQKPGKAPKLLIYNAKSLPSGVPSRFSGSGSGTDFTLTISSLQPEDFATYYCQHHYGNPLTFGQGTKVEIK
notes: as for B5
B13: humanized TIGIT-19 antibody 19VH4 + 19VL1.M5 (antibody, V domains shown)
VH: B1 VH with T28A, T30S, A53P, S55N
VL: B12 VL with P25A, E27Q
notes: as for B5
B14: humanized TIGIT-19 antibody 19VH4 + 19VL1.M6 (antibody, V domains shown)
VH: B1 VH with T28A, T30S, A53P, S55N
VL: B12 VL with P25A, E27Q, T31S
notes: as for B5
B15: humanized TIGIT-19 antibody 19VH4 + 19VL1.M7 (antibody, V domains shown)
VH: B1 VH with T28A, T30S, A53P, S55N
VL: B12 VL with P25A, E27Q, N28S, T31S
notes: as for B5
B16: humanized TIGIT-19 antibody 19VH4.M4 + 19VL1 (antibody, V domains shown)
VH: B1 VH with T28A, T30S, A53P
VL: B12 VL with S53T, S56E
notes: as for B5
B17: humanized TIGIT-19 antibody 19VH4.M5 + 19VL1 (antibody, V domains shown)
VH: B1 VH with T28A, T30S, A53P, S55N, N61A, R63K, R65Q
VL: B12 VL with S53T, S56E
notes: as for B5
B18: humanized TIGIT-19 antibody 19VH4.M6 + 19VL1 (antibody, V domains shown)
VH: B1 VH with A53P
VL: B12 VL with S53T, S56E
notes: as for B5
B19: humanized TIGIT-19 antibody 19VH4.M7 + 19VL1 (antibody, V domains shown)
VH: B1 VH with A53P, N61A, R63K, R65Q
VL: B12 VL with S53T, S56E
notes: as for B5
B20: humanized TIGIT-19 antibody 19VH4.M9 + 19VL1 (antibody, V domains shown)
VH: B1 VH
VL: B12 VL with S53T, S56E
notes: as for B5

biological target: T1, TIGIT on TIGIT-over expressing …; experiment: cell-based or functional assay

Row | Bottom (RLU) | EC50 | Top (RLU) | Binder
1 | 53900 RLU | 2.05 nM | 144000 RLU | B1
2 | 55200 RLU | 2.39 nM | 155000 RLU | B2
3 | 53700 RLU | 2.65 nM | 142000 RLU | B3
4 | 51300 RLU | 4.28 nM | 148000 RLU | B4

biological target: T2, human TIGIT expressed on CHO-K1 cells; experiment: flow cytometry on CHO-K1 cells expressing human TIGIT

Row | EC50 | Binder
5 | 0.294 nM | B1
6 | 0.256 nM | B2
7 | 0.196 nM | B3
8 | 0.172 nM | B4

biological target: T3, His-tagged human TIGIT; experiment: SPR experiment 1, IgG from HEK293 supernatant captured

Row | Kd | koff | kon | Binder
9 | 0.3 nM | 0.00014 s⁻¹ | 470000 M⁻¹ s⁻¹ | B5
10 | 0.35 nM | 0.00011 s⁻¹ | 310000 M⁻¹ s⁻¹ | B6
11 | 0.24 nM | 0.00013 s⁻¹ | 530000 M⁻¹ s⁻¹ | B7
12 | 0.63 nM | 0.00026 s⁻¹ | 410000 M⁻¹ s⁻¹ | B8
13 | 0.35 nM | 0.00012 s⁻¹ | 350000 M⁻¹ s⁻¹ | B9
14 | 0.65 nM | 0.00015 s⁻¹ | 230000 M⁻¹ s⁻¹ | B10

biological target: T3, His-tagged human TIGIT; experiment: SPR experiment 2, IgG from HEK293 supernatant captured

Row | Kd | koff | kon | Binder
15 | 0.5 nM | 0.00016 s⁻¹ | 320000 M⁻¹ s⁻¹ | B11

biological target: T3, His-tagged human TIGIT; experiment: as above; remark: another data set of the same source

Row | Kd | koff | kon | Binder
16 | 0.023 nM | 2.7e-05 s⁻¹ | 1.2e+06 M⁻¹ s⁻¹ | B12
17 | 0.081 nM | 8.7e-05 s⁻¹ | 1.1e+06 M⁻¹ s⁻¹ | B13
18 | 0.15 nM | 0.00015 s⁻¹ | 1e+06 M⁻¹ s⁻¹ | B14
19 | 0.13 nM | 0.00017 s⁻¹ | 1.3e+06 M⁻¹ s⁻¹ | B15
20 | 0.12 nM | 0.00013 s⁻¹ | 1.1e+06 M⁻¹ s⁻¹ | B16
21 | 0.16 nM | 0.0002 s⁻¹ | 1.3e+06 M⁻¹ s⁻¹ | B17
22 | 0.2 nM | 0.00021 s⁻¹ | 1e+06 M⁻¹ s⁻¹ | B18
23 | 0.3 nM | 0.00032 s⁻¹ | 1.1e+06 M⁻¹ s⁻¹ | B19
24 | 0.22 nM | 0.00023 s⁻¹ | 1.1e+06 M⁻¹ s⁻¹ | B20

biological target: T4, cynomolgus TIGIT expressed on CHO-K1 cells (cynomolgus, UniProt A0A7N9I9V4 89-312); experiment: flow cytometry on CHO-K1 cells expressing cynomolgus TIGIT
T4 construct: whole, on cells; also called cynomolgus TIGIT over-expressing cell line
T4 sequence (A0A7N9I9V4 entry or part of it): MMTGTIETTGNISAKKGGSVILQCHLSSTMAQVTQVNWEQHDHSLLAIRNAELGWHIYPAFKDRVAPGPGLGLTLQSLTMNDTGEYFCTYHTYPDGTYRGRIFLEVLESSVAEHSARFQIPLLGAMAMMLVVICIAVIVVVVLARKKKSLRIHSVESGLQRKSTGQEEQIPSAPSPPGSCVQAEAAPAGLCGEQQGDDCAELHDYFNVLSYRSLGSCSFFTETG

Row | EC50 | Binder
25 | 0.473 nM | B1
26 | 0.44 nM | B2
27 | 0.384 nM | B3
28 | 0.408 nM | B4

biological target: T3, His-tagged human TIGIT; experiment: SPR (Biacore T200), antibody captured, His-tagged TIGIT analyte

Row | Kd | koff | kon | Binder
29 | 0.16 nM | 0.00019 s⁻¹ | 1.1e+06 M⁻¹ s⁻¹ | B1
30 | 0.19 nM | 0.00021 s⁻¹ | 1.1e+06 M⁻¹ s⁻¹ | B2
31 | 0.28 nM | 0.0003 s⁻¹ | 1.1e+06 M⁻¹ s⁻¹ | B3
32 | 0.49 nM | 0.00059 s⁻¹ | 1.2e+06 M⁻¹ s⁻¹ | B4

biological target: T5, His-tagged cynomolgus TIGIT (cynomolgus, UniProt A0A7N9I9V4 89-209); experiment: as above
T5 construct: SPR analyte; also called cynomolgus TIGIT protein; not shown: His tag
T5 sequence (A0A7N9I9V4 entry or part of it): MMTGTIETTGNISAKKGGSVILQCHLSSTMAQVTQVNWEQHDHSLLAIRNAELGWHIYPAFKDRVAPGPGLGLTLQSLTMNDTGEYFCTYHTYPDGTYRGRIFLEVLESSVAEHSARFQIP

Row | Kd | koff | kon | Binder
33 | 0.047 nM | 3.7e-05 s⁻¹ | 790000 M⁻¹ s⁻¹ | B1
34 | 0.055 nM | 5.2e-05 s⁻¹ | 950000 M⁻¹ s⁻¹ | B2
35 | 0.054 nM | 4.1e-05 s⁻¹ | 760000 M⁻¹ s⁻¹ | B3
36 | 0.087 nM | 7.3e-05 s⁻¹ | 840000 M⁻¹ s⁻¹ | B4

biological target: T2, human TIGIT expressed on CHO-K1 cells; experiment: flow cytometry competition: biotinylated CD155-Fc on human TIGIT-CHO-K1 cells

Row | IC50 | Binder
37 | 0.22 nM | B1
38 | 0.24 nM | B2
39 | 0.21 nM | B3
40 | 0.26 nM | B4
